According to publication PMC6702222, “Visualizing structural transitions of ligand-dependent gating of the TRPM2 channel” (Nature Communications, 2019):

Target: the molecule itself
Test: cryo-EM structure; TRPM2DR in digitonin, Ca2+-free buffer, incubated with 1 mM EDTA (ligand-free); refined with C4 (~4.3 A) and C2 (~4.5 A) symmetry

B1: Danio rerio (zebrafish) transient receptor potential melastatin 2 channel, full-length wild type (natural protein, UniProt A0A0R4IMY7 1-1470, looked up)
chain: MDEAALEPTLVQTLAVSTAKGGRYLSLSPSFQRCSLASWIKENIKKKECCFYVEDGREGICKCGYPKVQHCDEAIKPEDYMGEQWDKHRHVRETPTDAFGDISFGGLGQKTGKYVRVSSDTSCENLYQLMTEQWKLRSPNLLISVTGGAKNFYIKTHLKDKFRRGLIKVAQTTGAWILTGGTHAGVMKHVGMAVRDYTLSSGSMEGQIVVIGVAPWGVIHNRSTLIHPEGRFPAYYSLDEQGQGRLSCLDINHTHFLLVDDGTQGHYGVEIELRARLEKLISKLSLGNRESGVTIPVVCVVLDGGPGTLNTIYNSMLNHTPCVVLEGSGRLADVIAHVASVPVSKVTMALINRLLKRFFMQEYKNFTELQIIEWTKKIQDILRMPHLLTVFRIDEDKNYDVDVAILQALLKASRSDEHAGRHCWERQLELAVAWNRVDIAESEIFTEESQWTSSDLHPAMFSALVGDKPEFVRLLLENGVCVREFLEREETLCELYSHLPSCFFLRKLAKRVQGGKMRRGQEPLPGSRKVCLSHVSEEVRHLLGSFTQPLYIASRYKPTKDDVRLKVPSKGALDLPCSGEEWSADTVWDPGRDLFLWAVVQNNRELAEIGWEQCRDCIAAALAASKILRKLAQESGEDDSEEATEMLELANHYEKQAIGVFSECHSWDAQRAQKLLIRISPSWGRSTCLWLALEAHDKSFIAHSGVQALLTQIWCGELSVDNPHWKVLLCMIFFPLIYTGFLTFRRDEDIQRQAERTEQQKLAMESVFAGQSDGKIKRHLRGFSQKSELKPLNCSSRLMSFLKSPQVKFYWNIASYFGFLWLFAVVLMIDFQTSPSWRELLLYVWLTSLVCEEIRQLYHDFDGSGFRRKAKMYIKDLWNILDVLSIVLFIAGLICRLQASDTVFYIGKVILCIDFIIFCLRLMAIFSISRTLGPKIIIVRRMMLDLFFFMFLLSIWVVAYGVAKQGILIENEERLNWIIRGAVYEPYITIFGNFPTNIDNTLFDISSCSVNASDPLKPKCPMLNADNTPVFPEWLTIMMLCVYLLFANILLLNLLIAIFNYTFQEVQDNTDTIWKFQRYELIKEYHSRPALPPPFILLSHLILFIRGVFLRDLPQRHKNFRQELEQTEEEELLSWEAYMKDNYLASTRQDESQSVEHRIHDTAEKVGAMSELLEREQEMVSATMAKRLARLEEQVSESAKALRWIIDALKSQGCKSKVQPPLMRSKSSDRDDGDSSGQETDDEEAPHMFARQLQYPDSTVRRFPVPEEKVSWEVNFSPYQPPVYNQQDSSESDTSALDKHRNPGGRTGIRGKGALNTLGPNHILHPIFTRWRDAEHKVLEFLAVWEDAEKRWALLGGPAQPDEPLAQVLERILGKKLNEKTKTLLKAGEEVYKGYVDDSRNTDNAWVETSIITLHCDKNTPLMADLNHMVESSLSSHQPLQWREVSSDACRCSYQREALRQIAHHHNTYF
notes: TRPM2, zebrafish (Danio rerio), NCBI XP_009303266.1, full-length wild type from a codon-optimized synthetic gene; Homo-tetramer in all cryo-EM reconstructions; also called TRPM2DR; TRPM2; source: for the ADPR/Ca2+ sample reconstituted into amphipol PMAL-C8
stoichiometry N: 4
